From paper PMC3513319, “The Importance of the Interaction of CheD with CheC and the Chemoreceptors Compared to Its Enzymatic Activity during Chemotaxis in Bacillus subtilis” (PLoS ONE, 2012) come the findings set out here.

In general, Kd refers to a measure of binding affinity in units of concentration. What is called koff is the rate constant with which the complex falls apart. Read a high koff as a short-lived complex. In general, kon refers to the rate constant with which the complex forms. High values mean fast association, low ones slow association.

Experiment [1] has as its target GST-CheD-F102E (Bacillus subtilis) (UniProt P40404). In words: pull-down; 80 µM GST-CheD or GST-CheD-F102E on glutathione beads; 100 µM CheC or receptor fragment added for 10 min; washed with TBS + 1% Triton X-100; eluted with glutathione; SDS-PAGE, Coomassie stain, densitometry.
For experiment [2], the target named is T1, CheC (Bacillus subtilis, UniProt P40403 1-209).
T1 construct: CheC, CheY-P phosphatase, Bacillus subtilis; also called pTM18 (pGEX-6P-2::cheC2); source: E. coli, overexpressed as GST-CheC, purified (GSTrap), GST removed with PreScission protease; not shown: GST, N-terminal, cleaved
T1 sequence (looked up): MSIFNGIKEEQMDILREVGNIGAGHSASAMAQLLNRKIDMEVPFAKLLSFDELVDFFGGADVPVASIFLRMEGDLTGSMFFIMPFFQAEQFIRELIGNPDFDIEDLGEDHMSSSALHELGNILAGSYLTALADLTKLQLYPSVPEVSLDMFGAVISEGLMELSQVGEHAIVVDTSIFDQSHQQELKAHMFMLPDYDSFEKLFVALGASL
In words: SPR; as a1, but with 20 µM CheY in the running buffer and in the injected CheC. Particulars: both partners purified. (Surface plasmon resonance follows binding to a sensor surface in real time, without labels.)

The target in experiment [3] is T1, CheC. As to the kind of experiment: SPR; Biacore 3000, NTA chip; 500 RU of GST-6xHis-CheD immobilised; CheC injected at different concentrations (80 µl, 20 µl/min); running buffer TKMD (50 mM Tris pH 8.0, 50 mM KCl, 5 mM MgCl2, 0.1 mM DTT); triplicate. Particulars: both partners purified.
The target in experiment [4] is T1, CheC. In words: SPR; as a1, but with 20 µM CheY and 5 mM acetyl phosphate (CheYp) in the running buffer and in the injected CheC. Particulars: both partners purified.

Consider “CheC (from UniProt P40403 1-209) (enzyme)”, for which the percent of the CheC bound by GST-CheD in experiment [1] worked out at 10%.

B1: GST-6xHis-CheD (enzyme, Bacillus subtilis, UniProt P40404 1-166, looked up)
chain: MSTTEAVVIKVGIADVKIARFPDTIRTSGLGSCVGLVLYDKEKQTAGLVHVMLPDSTLSKTAELNRAKYADTAVQTTIDMLIEAGCRKFALKAKLAGGSEMFKFKSTNDLMKIGPRNVLAIKEQLSLFNIPIISEDTGGSSGRTIEFEPKSCMLHIRTVKQGEKTI
notes: CheD, chemoreceptor glutamine deamidase, Bacillus subtilis; cheD gene amplified from OI1085 genomic DNA, cloned in pGEX-6P-2; Order of the tags by the printed name GST-6xHis-CheD: the 6xHis lies between GST and CheD; Held on the NTA chip by the 6xHis; also called pWY88 (pGEX-6P-2::6xHis-cheD2); source: E. coli, overexpressed, purified (GSTrap); not shown: GST, N-terminal, kept; 6xHis, N-terminal, …
In experiment [2], B1 displayed a dissociation constant (Kd) of 7.01 µM, a dissociation rate constant (koff) of 0.0743 s⁻¹ and a kon of 10600 M⁻¹ s⁻¹. In experiment [3], this molecule yielded a Kd of 3.95 µM, a koff of 0.0568 s⁻¹ and a kon of 14700 M⁻¹ s⁻¹. In experiment [4], binding was characterised by a dissociation constant (Kd) of 0.546 µM, the koff came out at 0.0976 s⁻¹ and the on-rate (kon) was 179000 M⁻¹ s⁻¹.
